Series [1] deals with AcnB (Escherichia coli, UniProt P36683). The conditions noted are these: citrate 0.1 to 50 mM; enzyme reactivated with 1 mM (NH4)2Fe(SO4)2 and 5 mM DTT, 50 mM Tris pH 8.
The target of series [2] is AcnA (Escherichia coli, UniProt P25516). The note with it: citrate 0.1 to 50 mM; enzyme reactivated with 1 mM (NH4)2Fe(SO4)2 and 5 mM DTT, 50 mM Tris pH 8.
Substrate in series [3]: O=C(O)CC(O)(CC(=O)O)C(=O)O
In words: purified protein. The conditions noted are these: citrate 0.1 to 50 mM, enzyme reactivated with 1 mM (NH4)2Fe(SO4)2 and 5 mM DTT, 50 mM Tris pH 8.

With `O=C(O)CC(O)(CC(=O)O)C(=O)O` [citrate], the Km (usually the concentration of substrate that gives half-maximal velocity) in series [1] worked out at 9.76 ± 0.67 mM; in series [2] it was 3.45 ± 0.23 mM.

B1: AcnB (Escherichia coli K-12) (protein)
chain: MLEEYRKHVAERAAEGIAPKPLDANQMAALVELLKNPPAGEEEFLLDLLTNRVPPGVDEAAYVKAGFLAAIAKGEAKSPLLTPEKAIELLGTMQGGYNIHPLIDALDDAKLAPIAAKALSHTLLMFDNFYDVEEKAKAGNEYAKQVMQSWADAEWFLNRPALAEKLTVTVFKVTGETNTDDLSPAPDAWSRPDIPLHALAMLKNAREGIEPDQPGVVGPIKQIEALQQKGFPLAYVGDVVGTGSSRKSATNSVLWFMGDDIPHVPNKRGGGLCLGGKIAPIFFNTMEDAGALPIEVDVSNLNMGDVIDVYPYKGEVRNHETGELLATFELKTDVLIDEVRAGGRIPLIIGRGLTTKAREALGLPHSDVFRQAKDVAESDRGFSLAQKMVGRACGVKGIRPGAYCEPKMTSVGSQDTTGPMTRDELKDLACLGFSADLVMQSFCHTAAYPKPVDVNTHHTLPDFIMNRGGVSLRPGDGVIHSWLNRMLLPDTVGTGGDSHTRFPIGISFPAGSGLVAFAAATGVMPLDMPESVLVRFKGKMQPGITLRDLVHAIPLYAIKQGLLTVEKKGKKNIFSGRILEIEGLPDLKVEQAFELTDASAERSAAGCTIKLNKEPIIEYLNSNIVLLKWMIAEGYGDRRTLERRIQGMEKWLANPELLEADADAEYAAVIDIDLADIKEPILCAPNDPDDARPLSAVQGEKIDEVFIGSCMTNIGHFRAAGKLLDAHKGQLPTRLWVAPPTRMDAAQLTEEGYYSVFGKSGARIEIPGCSLCMGNQARVADGATVVSTSTRNFPNRLGTGANVFLASAELAAVAALIGKLPTPEEYQTYVAQVDKTAVDTYRYLNFNQLSQYTEKADGVIFQTAV
Regarding B1, in series [3], the Km is given as 9.34 ± 0.72 mM; the kcat – broadly, the number of substrate molecules converted per active site and unit of time at saturation – was 63.5 ± 4.52 s⁻¹.

B2: AcnA (Escherichia coli K-12) (protein)
chain: SSTLREASKDTLQAKDKTYHYYSLPLAAKSLGDITRLPKSLKVLLENLLRWQDGNSVTEEDIHALAGWLKNAHADREIAYRPARVLMQDFTGVPAVVDLAAMREAVKRLGGDTAKVNPLSPVDLVIDHSVTVDRFGDDEAFEENVRLEMERNHERYVFLKWGKQAFSRFSVVPPGTGICHQVNLEYLGKAVWSELQDGEWIAYPDTLVGTDSHTTMINGLGVLGWGVGGIEAEAAMLGQPVSMLIPDVVGFKLTGKLREGITATDLVLTVTQMLRKHGVVGKFVEFYGDGLDSLPLADRATIANMSPEYGATCGFFPIDAVTLDYMRLSGRSEDQVELVEKYAKAQGMWRNPGDEPIFTSTLELDMNDVEASLAGPKRPQDRVALPDVPKAFAASNELEVNATHKDRQPVDYVMNGHQYQLPDGAVVIAAITSCTNTSNPSVLMAAGLLAKKAVTLGLKRQPWVKASLAPGSKVVSDYLAKAKLTPYLDELGFNLVGYGCTTCIGNSGPLPDPIETAIKKSDLTVGAVLSGNRNFEGRIHPLVKTNWLASPPLVVAYALAGNMNINLASEPIGHDRKGDPVYLKDIWPSAQEIARAVEQVSTEMFRKEYAEVFEGTAEWKGINVTRSDTYGWQEDSTYIRLSPFFDEMQATPAPVEDIHGARILAMLGDSVTTDHISPAGSIKPDSPAGRYLQGRGVERKDFNSYGSRRGNHEVMMRGTFANIRIRNEMVPGVEGGMTRHLPDSDVVSIYDAAMRYKQEQTPLAVIAGKEYGSGSSRDWAAKGPRLLGIRVVIAESFERIHRSNLIGMGILPLEFPQGVTRKTLGLTGEEKIDIGDLQNLQPGATVPVTLTRADGSQEVVPCRCRIDTATELTYYQNDGILHYVIRNMLK
As for B2, in series [3], the Km turned out to be 1.64 ± 0.21 mM and the kcat amounted to 20.6 ± 1.62 s⁻¹.

For the origin of these results see PMC8987015, “Studying Acetylation of Aconitase Isozymes by Genetic Code Expansion” (Frontiers in Chemistry, 2022).
